Experiment [1] deals with CAP256 SU gp140-FL-IP (HIV-1 subtype C (CAP256 SU)). Briefly: native gel or EMSA; NativePAGE Novex 3-12% Bis-Tris gels (BN-PAGE) of lectin-purified protein, Coomassie stain or anti-gp160 western blot; oligomer judged by molecular weight against NativeMark standard. In general terms: Mobility shift assays separate free from complexed probe on a gel.
The target of experiment [2] is CAP256 gp140-FL-IP-His (HIV-1 subtype C (CAP256 SU)). The description is as above.

Our source for the stoichiometry N values is publication PMC6296668.

Several values for one entry are separate records, joined by “and”; a condition that tells them apart may be missing. Equal entries are not always repeated.

Consider “CAP256 SU gp140-FL-IP (domain or fragment)”, for which the stoichiometry N (as a rule, a count of units in the complex or per binding partner) in experiment [1] stood at 3.
Regarding “CAP256 gp140-FL-IP-His (domain or fragment)”, in experiment [2], the stoichiometry N was 3 and 2.
